A word on the IC50: it is the point on the concentration scale where inhibition reaches its midpoint.

For the first experiment, the target named is recombinant Actinobacillus pleuropneumoniae serotype 7 60 kDa transferrin binding protein (Actinobacillus pleuropneumoniae serotype 7 strain AP205). In words: competitive ELISA, 50% inhibition value, solid phase porcine transferrin.
“bovine apotransferrin (from UniProt Q29443) (ligand)”: the IC50 is over 1000 µg/mL.
Regarding “bovine transferrin, iron replete (from UniProt Q29443) (ligand)”, the IC50 is over 1000 µg/mL.
Still for that read-out and setting: under “human apotransferrin (from UniProt P02787) (ligand)” stands over 1000 µg/mL.
In the case of “human transferrin, iron replete (from UniProt P02787) (ligand)”, the concentration for half-maximal inhibition (IC50) was over 1000 µg/mL.
In the case of “porcine TF, NH2-terminus (from UniProt P09571) (ligand)”, the IC50 came to 20 µg/mL.
Consider “porcine apotransferrin (from UniProt P09571) (ligand)”, for which the IC50 was determined as 150 µg/mL.

A further experiment shares this target. In words: competitive ELISA, 50% inhibition value; competitor preincubated with the recombinant 60 kDa protein, solid phase porcine transferrin. A general note: ELISA stands for enzyme-linked immunosorbent assay.
Take “porcine transferrin (TF), iron replete (from UniProt P09571) (ligand)”: the IC50 was 25 µg/mL.
